Data reported in IntAct's records for PubMed 22340593.

B1: Tumor protein p73 (Homo sapiens), O15350 (parent)
chain: MAQSTATSPDGGTTFEHLWSSLEPDSTYFDLPQSSRGNNEVVGGTDSSMDVFHLEGMTTSVMAQFNLLSSTMDQMSSRAASASPYTPEHAASVPTHSPYAQPSSTFDTMSPAPVIPSNTDYPGPHHFEVTFQQSSTAKSATWTYSPLLKKLYCQIAKTCPIQIKVSTPPPPGTAIRAMPVYKKAEHVTDVVKRCPNHELGRDFNEGQSAPASHLIRVEGNNLSQYVDDPVTGRQSVVVPYEPPQVGTEFTTILYNFMCNSSCVGGMNRRPILIIITLEMRDGQVLGRRSFEGRICACPGRDRKADEDHYREQQALNESSAKNGAASKRAFKQSPPAVPALGAGVKKRRHGDEDTYYLQVRGRENFEILMKLKESLELMELVPQPLVDSYRQQQQLLQRPSHLQPPSYGPVLSPMNKVHGGMNKLPSVNQLVGQPPPHSSAATPNLGPVGPGMLNNHGHAVPANGEMSSSHSAQSMVSGSHCTPPPPYHADPSLVSFLTGLGCPNCIEYFTSQGLQSIYHLQNLTIEDLGALKIPEQYRMTIWRGLQDLKQGHDYSTAQQLLRSSNAATISIGGSGELQRQRVMEAVHFRVRHTITIPNRGGPGGGPDEWADFGFDLPDCKARKQPIKEEFTEAEIH
B2: Tumor protein p73 (Homo sapiens), O15350 (parent)
chain: B1 chain
partner: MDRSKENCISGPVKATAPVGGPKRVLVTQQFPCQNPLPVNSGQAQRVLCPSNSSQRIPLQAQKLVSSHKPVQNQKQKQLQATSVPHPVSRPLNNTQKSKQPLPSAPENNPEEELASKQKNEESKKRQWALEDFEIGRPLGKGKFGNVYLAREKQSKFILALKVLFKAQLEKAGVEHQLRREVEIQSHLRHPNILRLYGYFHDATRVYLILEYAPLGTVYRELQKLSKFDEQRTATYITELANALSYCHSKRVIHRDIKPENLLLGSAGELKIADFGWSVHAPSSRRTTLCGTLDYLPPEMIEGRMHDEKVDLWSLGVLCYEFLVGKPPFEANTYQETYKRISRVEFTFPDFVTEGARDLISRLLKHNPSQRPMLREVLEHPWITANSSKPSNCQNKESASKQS

Variants of: B1
Details: with hspa9_human HSPA9, P38646
Chain of hspa9_human HSPA9, P38646 (P38646 whole entry): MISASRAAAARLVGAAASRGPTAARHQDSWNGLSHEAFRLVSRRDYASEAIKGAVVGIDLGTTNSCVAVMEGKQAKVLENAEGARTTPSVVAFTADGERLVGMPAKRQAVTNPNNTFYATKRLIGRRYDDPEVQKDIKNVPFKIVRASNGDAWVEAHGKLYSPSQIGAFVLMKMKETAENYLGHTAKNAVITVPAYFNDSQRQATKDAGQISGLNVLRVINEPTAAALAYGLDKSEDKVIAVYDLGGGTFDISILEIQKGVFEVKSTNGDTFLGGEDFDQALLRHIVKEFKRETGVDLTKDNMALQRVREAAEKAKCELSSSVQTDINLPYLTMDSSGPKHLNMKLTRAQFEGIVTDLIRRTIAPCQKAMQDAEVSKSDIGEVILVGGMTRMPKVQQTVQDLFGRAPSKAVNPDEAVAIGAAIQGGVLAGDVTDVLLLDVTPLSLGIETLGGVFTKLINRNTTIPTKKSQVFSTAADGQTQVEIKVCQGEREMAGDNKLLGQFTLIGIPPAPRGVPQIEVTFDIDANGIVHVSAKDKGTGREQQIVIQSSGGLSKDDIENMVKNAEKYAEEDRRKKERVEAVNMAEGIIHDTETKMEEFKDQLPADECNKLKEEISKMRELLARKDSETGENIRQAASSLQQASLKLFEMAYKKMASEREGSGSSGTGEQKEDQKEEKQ

| Variant | effect of a mutation on the interaction |
| --- | --- |
| S235D | increasing interaction strength |

Variants of: B2
Details: with aurka_human AURKA

| Variant | effect of a mutation on the interaction |
| --- | --- |
| S235D | increasing interaction strength |
